Source: the supplement of paper PMC10724198
± gives the standard deviation of the averaged measurements.

What was measured:
[1] = tested on: Saccharomyces cerevisiae; test: protein stability index of tFT-peptide fusion (C-terminal peptide) (PSI (0-1 scale)); higher = more stable (slower turnover)
Method: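 MPS profiling in S. cerevisiae of the tFT-X12 degron library: putative degron peptides plus stable controls, 12 aa, fused to the C-terminus of a sfGFP-mCherry timer. Cells are FACS-sorted into 8 mCherry/sfGFP bins and deep-sequenced. PSI runs from 0 (unstable) to 1 (stable). Backgrounds are wild type, das1Δ and doa10Δ at 30 °C, and wild type, das1Δ, cdc34-1 and cdc53-1 at 37 °C; 2-3 technical replicates each.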

[2] = tested on: Saccharomyces cerevisiae; test: as above; settings: genetic background: wild type; temperature: 30 C
[3] = genetic background: cdc34-1, temperature: 37 C
[4] = genetic background: cdc53-1, temperature: 37 C
[5] = genetic background: das1 deletion, temperature: 30 C
[6] = genetic background: das1 deletion, temperature: 37 C
[7] = genetic background: doa10 deletion, temperature: 30 C
[8] = genetic background: wild type, temperature: 30 C
[9] = genetic background: wild type, temperature: 37 C
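Also: PSI is a weighted mean of sequencing reads over stability bins, variants kept only with over 10 reads, mCherry proximal and sfGFP distal, peptide attached via GGGS linker.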

| Sequence | protein stability index [1, 3] | protein stability index [1, 4] | protein stability index [1, 5] | protein stability index [1, 6] | protein stability index [1, 7] | protein stability index [1, 8] | protein stability index [1, 9] | protein stability index [2] |
| --- | --- | --- | --- | --- | --- | --- | --- | --- |
| SLVFCYSLFVFI | 0.342 ± 0.08 | 0.464 ± 0.0058 | 0.381 ± 0.039 | 0.472 ± 0.012 | 0.368 ± 0.044 | 0.347 ± 0.04 | 0.444 ± 0.028 | 0.402 ± 0.017 |
| SLYSFRCFFVLF | 0.35 ± 0.027 | 0.461 ± 0.022 | 0.408 ± 0.022 | 0.51 ± 0.019 | 0.182 ± 0.0065 | 0.17 ± 0.012 | 0.235 ± 0.0058 | 0.263 ± 0.032 |
| SPKFMCSLSCWW | 0.714 ± 0.026 | 0.77647 ± 0.00063 | 0.685 ± 0.071 | 0.7527 ± 0.006 | 0.6577 ± 0.0042 | 0.665 ± 0.014 | 0.744 ± 0.021 | 0.732 ± 0.011 |
| SPLLLIIFRSLC | 0.505 ± 0.096 | 0.558 ± 0.0093 | 0.436 ± 0.039 | 0.623 ± 0.025 | 0.107 ± 0.0011 | 0.119 ± 0.0077 | 0.183 ± 0.019 | 0.18 ± 0.038 |
| SREPPTSTSSRH | 0.6388 ± 0.0031 | 0.709 ± 0.032 | 0.685 ± 0.012 | 0.669 ± 0.016 | 0.696 ± 0.025 | 0.703 ± 0.011 | 0.679 ± 0.0072 | 0.519 ± 0.13 |
| SRFPARCLLCCW | 0.531 ± 0.029 | 0.52 ± 0.021 | 0.454 ± 0.036 | 0.583 ± 0.017 | 0.4309 ± 0.002 | 0.449 ± 0.018 | 0.546 ± 0.007 | 0.501 ± 0.031 |
| SRMIPSAFLLVI | 0.589 ± 0.016 | 0.64 ± 0.012 | 0.507 ± 0.016 | 0.627 ± 0.012 | 0.348 ± 0.012 | 0.371 ± 0.02 | 0.513 ± 0.011 | 0.442 ± 0.01 |
| SSAQKVMELQIV | 0.664 ± 0.011 | 0.7179 ± 0.0062 | 0.648 ± 0.018 | 0.7361 ± 0.0023 | 0.223 ± 0.0048 | 0.257 ± 0.042 | 0.467 ± 0.035 | 0.404 ± 0.011 |
| SSLGILHWRLHS | 0.587 ± 0.038 | 0.709 ± 0.019 | 0.646 ± 0.011 | 0.7347 ± 0.0067 | 0.122 ± 0.022 | 0.14 ± 0.017 | 0.259 ± 0.027 | 0.224 ± 0.0078 |
| SVAWFIYVARSI | 0.529 ± 0.023 | 0.543 ± 0.072 | 0.482 ± 0.017 | 0.611 ± 0.011 | 0.282 ± 0.0042 | 0.329 ± 0.011 | 0.5224 ± 0.0022 | 0.471 ± 0.038 |
| SVCCSLLAVASP | 0.311 ± 0.035 | 0.355 ± 0.016 | 0.364 ± 0.022 | 0.323 ± 0.016 | 0.392 ± 0.029 | 0.384 ± 0.027 | 0.29 ± 0.0066 | 0.3666 ± 0.0026 |
| SVFFALFLRCTP | 0.26 ± 0.058 | 0.229 ± 0.055 | 0.34 ± 0.031 | 0.442 ± 0.005 | 0.43 ± 0.026 | 0.323 ± 0.024 | 0.405 ± 0.02 | 0.359 ± 0.05 |
| SVGVVWVLSVEG | 0.444 ± 0.042 | 0.517 ± 0.015 | 0.33 ± 0.031 | 0.5415 ± 0.0018 | 0.308 ± 0.0081 | 0.343 ± 0.018 | 0.503 ± 0.0036 | 0.454 ± 0.0074 |
| SVTFVVYFISGG | 0.522 ± 0.025 | 0.608 ± 0.023 | 0.409 ± 0.022 | 0.578 ± 0.028 | 0.426 ± 0.048 | 0.421 ± 0.022 | 0.548 ± 0.0076 | 0.513 ± 0.039 |
| SWAILFVLEGFK | 0.4673 ± 0.0029 | 0.548 ± 0.058 | 0.37 ± 0.021 | 0.561 ± 0.0092 | 0.318 ± 0.019 | 0.366 ± 0.011 | 0.5837 ± 0.004 | 0.477 ± 0.067 |
| SWLLLVFPLSVC | 0.0423 ± 0.012 | 0.0634 ± 0.005 | 0.167 ± 0.03 | 0.231 ± 0.0058 | 0.0982 ± 0.0044 | 0.0994 ± 0.021 | 0.113 ± 0.0063 | 0.191 ± 0.016 |
| TCFVKLLPFLVL | 0.549 ± 0.052 | 0.562 ± 0.011 | 0.456 ± 0.02 | 0.608 ± 0.024 | 0.4425 ± 0.0032 | 0.442 ± 0.013 | 0.5482 ± 0.0021 | 0.546 ± 0.067 |
| TCRASLRRIVVA | 0.514 ± 0.024 | 0.538 ± 0.03 | 0.381 ± 0.031 | 0.5813 ± 0.0056 | 0.222 ± 0.01 | 0.255 ± 0.042 | 0.459 ± 0.015 | 0.358 ± 0.034 |
| TFRVLREIILTA | 0.2 ± 0.021 | 0.228 ± 0.021 | 0.206 ± 0.029 | 0.33 ± 0.023 | 0.151 ± 0.011 | 0.178 ± 0.024 | 0.277 ± 0.0079 | 0.249 ± 0.0078 |
| TPPFFDIFVVLL | 0.576 ± 0.052 | 0.652 ± 0.023 | 0.463 ± 0.027 | 0.6652 ± 0.0032 | 0.456 ± 0.021 | 0.48 ± 0.031 | 0.616 ± 0.043 | 0.46 ± 0.037 |

| Sequence | protein stability index [1, 3] | protein stability index [1, 4] | protein stability index [1, 5] | protein stability index [1, 6] | protein stability index [1, 7] | protein stability index [1, 8] | protein stability index [1, 9] | protein stability index [2] |
| --- | --- | --- | --- | --- | --- | --- | --- | --- |
| TPPIRCRLVRFL | 0.656 ± 0.059 | 0.735 ± 0.017 | 0.626 ± 0.029 | 0.7526 ± 0.00097 | 0.2071 ± 0.0014 | 0.219 ± 0.018 | 0.496 ± 0.0056 | 0.335 ± 0.029 |
| TSARPFLYSFRP | 0.69 ± 0.036 | 0.7386 ± 0.0065 | 0.654 ± 0.018 | 0.739 ± 0.0082 | 0.65 ± 0.016 | 0.642 ± 0.019 | 0.705 ± 0.027 | 0.00961 ± 0.014 |
| TVLPCVLLFLRG | 0.61 ± 0.026 | 0.632 ± 0.012 | 0.508 ± 0.035 | 0.613 ± 0.0086 | 0.506 ± 0.022 | 0.484 ± 0.037 | 0.603 ± 0.03 | 0.485 ± 0.013 |
| VAVFFGCCVKVG | 0.149 ± 0.027 | 0.18 ± 0.02 | 0.191 ± 0.035 | 0.3258 ± 0.0018 | 0.0877 ± 0.0089 | 0.109 ± 0.024 | 0.141 ± 0.019 | 0.156 ± 0.026 |
| VAVGFVLGLCVV | 0.392 ± 0.042 | 0.418 ± 0.013 | 0.348 ± 0.03 | 0.4701 ± 0.0042 | 0.31 ± 0.012 | 0.35 ± 0.021 | 0.431 ± 0.012 | 0.447 ± 0.011 |
| VCFLLLLPALLI | 0.466 ± 0.031 | 0.465 ± 0.014 | 0.398 ± 0.026 | 0.516 ± 0.0089 | 0.422 ± 0.0094 | 0.393 ± 0.016 | 0.512 ± 0.027 | 0.432 ± 0.053 |
| VCNQVPGVIWFC | 0.683 ± 0.036 | 0.771 ± 0.017 | 0.654 ± 0.018 | 0.7556 ± 0.0068 | 0.373 ± 0.0045 | 0.412 ± 0.018 | 0.61183 ± 8.6e-05 | 0.481 ± 0.022 |
| VCRFLVSVFSCV | 0.546 ± 0.042 | 0.548 ± 0.02 | 0.453 ± 0.02 | 0.5763 ± 0.00065 | 0.38 ± 0.024 | 0.399 ± 0.025 | 0.5167 ± 0.0027 | 0.439 ± 0.019 |
| VCRVAAWLGWFV | 0.522 ± 0.016 | 0.708 ± 0.024 | 0.637 ± 0.019 | 0.7292 ± 0.00075 | 0.0897 ± 0.012 | 0.0909 ± 0.024 | 0.1636 ± 0.0013 | 0.175 ± 0.025 |
| VEFSLYVVFFLV | 0.2152 ± 0.00048 | 0.344 ± 0.024 | 0.248 ± 0.029 | 0.437 ± 0.028 | 0.0993 ± 0.013 | 0.109 ± 0.018 | 0.154 ± 0.0063 | 0.211 ± 0.0088 |
| VFCPRACWEFVG | 0.567 ± 0.041 | 0.737 ± 0.027 | 0.649 ± 0.021 | 0.7777 ± 0.0067 | 0.12 ± 0.0079 | 0.143 ± 0.0095 | 0.213 ± 0.0029 | 0.222 ± 0.034 |
| VFCSRSLISVVS | 0.193 ± 0.03 | 0.243 ± 0.072 | 0.208 ± 0.041 | 0.355 ± 0.007 | 0.165 ± 0.014 | 0.192 ± 0.03 | 0.303 ± 0.011 | 0.313 ± 0.027 |
| VFFCLCLCLFFV | 0.432 ± 0.023 | 0.463 ± 0.012 | 0.341 ± 0.018 | 0.473 ± 0.028 | 0.299 ± 0.0062 | 0.314 ± 0.022 | 0.45 ± 0.036 | 0.368 ± 0.031 |
| VFFGCIWSIVYN | 0.247 ± 0.022 | 0.302 ± 0.12 | 0.213 ± 0.035 | 0.41 ± 0.018 | 0.181 ± 0.014 | 0.229 ± 0.042 | 0.377 ± 0.011 | 0.2962 ± 0.0012 |
| VFGARLFLIRLV | 0.405 ± 0.059 | 0.519 ± 0.069 | 0.534 ± 0.033 | 0.635 ± 0.023 | 0.155 ± 0.027 | 0.14 ± 0.041 | 0.1767 ± 0.00049 | 0.223 ± 0.0077 |
| VFLNVLDNNRLC | 0.65 ± 0.078 | 0.734 ± 0.011 | 0.662 ± 0.025 | 0.74 ± 0.0031 | 0.323 ± 0.011 | 0.331 ± 0.046 | 0.622 ± 0.028 | 0.464 ± 0.037 |
| VFLRFVLSFFLL | 0.542 ± 0.03 | 0.629 ± 0.023 | 0.526 ± 0.023 | 0.608 ± 0.0045 | 0.424 ± 0.02 | 0.418 ± 0.013 | 0.489 ± 0.0065 | 0.4516 ± 0.001 |
| VFLSLVFFFIIT | 0.254 ± 0.011 | 0.343 ± 0.0077 | 0.282 ± 0.035 | 0.43 ± 0.005 | 0.287 ± 0.013 | 0.275 ± 0.019 | 0.392 ± 0.021 | 0.367 ± 0.026 |
| VFRVLLSLFSTL | 0.657 ± 0.021 | 0.7335 ± 0.0063 | 0.653 ± 0.018 | 0.738 ± 0.0053 | 0.289 ± 0.019 | 0.306 ± 0.023 | 0.4804 ± 0.0029 | 0.408 ± 0.0095 |
